Results on 23 molecules are retold here after patent US20220195015A1 (published 2022).

As usually defined, the EC50 is the concentration giving half of the maximal effect.

B1: C537 (antibody, V domains shown)
VH: QLQLQESGPGLVKPSETLSLTCTVSGGAISSRNYHWGWIRQPPGKGLEWIGSIYYSGSTYYSPSLKSRVTISVDTSKNQFSLRLSSVTAADTAVYYCARLETSGWYTEDVFDIWGQGTMVTVSS
VL: DIQMTQSPSSLSASVGDRVTITCRASQSISSYLNWYQQKPGKAPKLLIYAASSLQSGVPSRFSGSGSGTDFTLTISSLLPEDFATYYCQRSYSAMYTFGQGTKLEIK
B2: C543 (antibody, V domains shown)
VH: QVQLVESGGGVVQPGRSLRLSCTASGFTFSTAGMHWVRQAPGKGLEWVAVISYDGSNKDYADSVKGRFTISRDNSKSTLYLQMNSLRPEDTAVYYCAKDTPGGDDIMTGWGLYGMDVWGQGTTVTVSS
VL: B1 VL with Q37H, S52I, S67F, L79Q, T85I, R90Q, A94T, M95P, Y96W, L104V
B3: C547 (antibody, V domains shown)
VH: B2 VH with T23A, T31S, A32Y, D59Y, S77N, P88A, M107L
VL: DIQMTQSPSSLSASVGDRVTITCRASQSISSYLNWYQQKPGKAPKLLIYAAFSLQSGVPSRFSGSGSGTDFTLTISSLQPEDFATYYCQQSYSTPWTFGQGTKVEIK
B4: C542 (antibody, V domains shown)
VH: EVQLVESGGGLVQPGGSLRLSCAASGLTVTSNYMSWVRQAPGRGLEWVSLIYPGGTTYYADSVKGRFTVSRDNSKNTLYLQMDSLRAEDTGVYYCARETLGRGGDCWGQGTLVTVSS
VL: DIQMTQSPSSLSASVGDRVTITCQASQDISNFLNWYQQKPGKAPKLLIYDASNLETGVPSRFSGSRSGTDFTFTISSLQPDDIATYYCQQYDNLPRSFGQGTKLEIK
B5: C544 (antibody, V domains shown)
VH: QVQLVQSGAEVKKPGASVKVSCKASGYTFSSHDINWVRQATGQGLEWVGWMNPNSGNTGSAQSFQGRVTLTRNASISTAYLELSSLRSEDTAVYFCARGFSLTWYFDLWGRGTLVTVSS
VL: SYELTQPPSVSAAPGKTARITCGGNNIGGKNVHWYQQKPGQAPVLVVFDDSDRPSGIPERFSGSNSGNTATLTISRVEAGDEADYYCQLWDSTSDHPDVVFGGGTQLTVL
B6: C533 (antibody, V domains shown)
VH: EVQLVESGGSLVKPGGSLRLSCVASGLTFNHAWMSWVRQAPGKGLEWVGRIKSKIDGGTTDYAAPVKGRFTISRDDSKSTQYLQMNSLKTEDTAVYYCTTDCFWRLGGTTCYEHDAFDVWGQGTMVTVSS
VL: DIQMTQSPSSLSASVGDRVTITCRASQAIATFLNWYQQKPGKAPKLLIYAASSLQSGVPSRFSGSGSGTDFTLTISNLQPEDFATYYCQQSYNSLHFGGGTKVEIK
B7: C534 (antibody, V domains shown)
VH: QVQLVQSGAEVKKPGSSVRVSCKASGGTFSRNVISWVRQAPGQGLEWMGGIIPMFATANYAQKFQGRVTITADESSSTAYMELSSLRSEDTAVYYCAREDFILVSAPIRENSYYYYGMDVWGQGTTVTVSS
VL: EIVLTQSPGTLSLSPGERATLSCRASQSVSSNYLAWYQQKPGQAPRLLIYDASSRATGIPDRFSGSGSGTDFTLTISRLEPEDFAVYYCQQYGGSPRTFGQGTKVEIK
B8: C539 (antibody, V domains shown)
VH: EVQLVESGGGLVQPGRSLRLSCAASGFTFDDYALHWVRQAPGKGLEWVSGISWNGDSIGYADSVKGRFTISRDNAKNSLSLQMNSLTAEDTALYYCAKGVEYSSSSNCDYWGQGTLVTVSS
VL: DIQMTQSPSSVSASVGDRVTITCRASQDISSWLAWYQQKPGKAPKLLISLASGLQSGVPSRFSGSGSETDFTLTISSLQPEDFATYYCQQTNSFPLTFGGGTKVEI
B9: C548 (antibody, V domains shown)
VH: QVQLVQSGAEVKKPGSSVKVSCKASGGTFSSYAISWVRQAPGQGLEWMGGIIPIFGTANYAQKFQGRVTITADESTSTAYMELSSLRSEDTAVYYCARREAYGPRDYYYYYGMDVWGQGTTVTVSS
VL: QSALTQPPSASASLGASVTLTCTLSSGYSNYKVDWYQQRPGKGPRFVMRVGTGGIVGSKGDGIPDRFSVLGSGLNRYLTIKNIQEEDESDYHCGADQGSGSNFVGVFGGGTKLTVL
B10: C538 (antibody, V domains shown)
VH: QLQLQESGPGLVKPSETLSLTCTVSGGSISSSSYYWAWIRQPPGKGLEWIGNIYYSGITYYSPSLKSRVTISVDTSKNQFSLKLRSVTAADTAVYYCARQHRYGSGSSELLWGQGTLVTVSS
VL: QSALTQPPSASGSPGQSVTISCTGTSSDVGSYNYVSWYQQHPGKAPKLMIYEVTKRPSGVPDRFSGSKSGNTASLTVSGLQADDEADYYCSSYAGSSNLIFGGGTKLTVL
B11: C540 (antibody, V domains shown)
VH: EVQLVESGGGLVQPGGSLRLSCAASGFTFRNYDMHWVRQVAGKGLEWVSAIGTSGDTYYPDSVKGRFTISRENAKNSVYLQMNNLRAGDTAVYFCVRDREISGWTGWYFDLWGRGTLVTVSS
VL: DIQMTQSPSSLSASVGDRVTITCRASQTIHNYLNWYQQIPGKAPRLLIYATNTLQSGVPSRFSGSGSGTDFTLTITGLQPEDFATYYCQQSYSTPPITFGQGTRLEIK
B12: C561 (antibody, V domains shown)
VH: EVQLVESGGGLVQPGRSLRLSCAASGFTFDDYAIHWVRQAPGKGLEWVSGVSWNSGTIGYADSVKGRFFISRDNAKNSLYLQMNSLRAEDTAWYYCAKIADLVGAYDFRSGQHFAAFDVWGQGTMVTVSS
VL: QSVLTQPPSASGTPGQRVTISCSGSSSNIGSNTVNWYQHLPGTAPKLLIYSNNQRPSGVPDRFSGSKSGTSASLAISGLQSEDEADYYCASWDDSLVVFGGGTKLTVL
B13: C549 (antibody, V domains shown)
VH: QVQLVQSGAEVKKPGSSVKVSCKASGGTFSTSAISWVRQAPGQGLEWMGGIIPFFGTPNYAQKFQGRVTIIADESTTTAYMELSGLRFEDSAVYYCARREPYGPRDYYYFFGMDVWGPGTTVTVSS
VL: QSALTQPPFASASLGASVTLTCTLSSDYSYYKVDWYQQRPGKGPRFVIRVGPGGIVGSKGDGFPDRFSVLGSGLNRSLTINNIQEEDEGDYHCGADEGSGGTFVGVFGGGTKLTV
B14: C545 (antibody, V domains shown)
VH: EVQLLESGGGLVKPGGSLRLSCAASGFTFSDYSMTWVRQAPGKGLEWVSFISSSSTYIYYADSVKGRFTISRDNAKSSLYLQMNRLRAEDTAVYYCTRVQVGARGWADYWGQGTLVTVSS
VL: NFMLTQPLSVSESPGKTVTISCTRSSGSIASNYVQWYQQRPGGAPTTVIYEDTQRPSGVPDRFSGSIDSSSNSASLTISGLKTEDEADYYCQSCDTINWVFGGGTKLTVV
B15: C535 (antibody, V domains shown)
VH: EVQLVESGGALVQPGRSLRLSCAASGFTFDDYAMHWVRQAPGKGLEWVSSISWNGVSIGYADSVRGRFTISRDNAKNSLYLQMNSLKIGDTAFYYCARGLDGSSSASPDSWGQGTLVTVSS
VL: DIQMTQSPSSVSASVGDRVTITCRASQGIGSWLAWYQQKPGKAPKLLIYLASSLQSGVPSRFSGSGSGTYFTLTISGLQPEDFATYYCQQGNSFPLTFGGGTKVEIK
B16: C536 (antibody, V domains shown)
VH: QVQLVESGGGLVKPGRSLRLSCTVSGFTFGAYAMSWFRQAPGKGLEWVGFIRSKTYGGTTEYAASLKGRFTISRDDSKSIAFLQMNSLKTEDTAVYFCSRGGYYDGSPYYWNRPDAFDIWGLGTMVTVS
VL: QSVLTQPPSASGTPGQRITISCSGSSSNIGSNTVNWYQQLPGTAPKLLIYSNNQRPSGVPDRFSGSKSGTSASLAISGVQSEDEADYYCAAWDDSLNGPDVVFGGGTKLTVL
B17: C546 (antibody, V domains shown)
VH: EVQLLESGGGLVHPGGSLRLSCAASGFTFSTYAMHWVRQAPGKGLEWVSAISGSGTGTFYADSVKGRFSISRDNSKNTLYLQMNSLRAEDTAVYYCATERIAVSDTRMYNWFDPWGQGTLVTVSS
VL: DIQMTQSPSSLSASVGDRVTLTCRASQGISTYLNWYQQKPGKAPNLLIYAASSLQSGVPSRFSGSGSGTDFTLTISSLQPEDFATYYCQQSYSAPPWTFGQGTKVEIK
B18: C073 (antibody, V domains shown)
VH: QLQLQESGPGLVKPSETLSLTCTVSGASIPSSTSYWGWIRQPPGKGLEWIGSIYYTGSTYYNPSLKSRVTISVDTSKNHFSLILSSVTAADTAVYYCARRSITLAGRDCLDFWGQGTLVTVSS
VL: DIQLTQSPSSLSASVGDRLTITCRASQSITTSLNWYQQKPGKAPKLLIYAASSLQSGVPSRFSGSGSGTDFTLAISSLQPEDFATYYCQQSYIPLLTFGGGTKVDIK
B19: C513 (antibody, V domains shown)
VH: EVQLLESGGGLVQPGGSLRLSCVASGFSFSTYAMSWVRQAPGQGLEWVSTITGTSIGTYYADSVKGRFTISRDNSKNTVFLQMKSLRAEDAAVYYCANHPLASGDEYYYYYMDVWGKGTTVTVSS
VL: EIVLTQSPDTLSLSPGERATLSCRASQSVHSKQLAWYQQKPGQAPRLLIYGASSRATGIPDRFSGSGSGTDFTLTISRLEPEDFAVYYCQQYGSIRALTFGGGTKVEIK
B20: C077 (antibody, V domains shown)
VH: QVQLVQSGAEVKKPGASVKVSCKASGYTFTSYAMHWVRQAPGQRLEWMGWINTDNGNTKYSQKFQGRVTITRDTSASTAYMELSSLRSEDTAVYYCAREGALTNWFDPWGQGTLVTVSS
VL: SYELTQPPSVSVAPGQTARIPCGGNNIGSKSVHWYQQKPGQAPVLVVYDDSDRPSGIPERFSGSNSGNTATLTISRVEAGDEADYYCQVWDSSSDLHVVFGGGTKLTVL
B21: C132 (antibody, V domains shown)
VH: QVQLQESGPGLVKPSGTLSLTCAVSGGSISSNNWWSCVRQPPGKGLEWIGEIYHSGSTNYNPSLKSRVTISVDKSKNQFSLKLSSVTAADTAVYYCARGGDTAMGPEYFDYWGQGTLVTVSS
VL: QSALTQPASVSGSPGQSITISCTGTSSDVGGYNYVSWYQQHPGKAPKLMIYDVSNRPSGVSNRFSGSKSGNTASLTISGLQAEDEADYYCSSYTSSSTLLFGGGTKLTVL
B22: C512 (antibody, V domains shown)
VH: B21 VH with G26A, C37W, I52V, S55N, S57N, T58I, I70L, R98K, T102R, Y111S
VL: B21 VL with G31A, Y32N, S54N, N55E, A82T, Y93F, T94A
B23: C515 (antibody, V domains shown)
VH: EVQLVESGGGLVQPGGSLRLSCAASGFIVSSNYMSWVRQAPGKGLEWVSILYSGGSTYYADSVKGRFTISRDNSKNTLYLQMNSLRAEDTAVYYCARDLVVYGADYWGQGTLVTVSS
VL: DIQLTQSPSFLSASVGDRVTITCRASQGISSYLAWYQQKPGKAPKLLIYAASTLQSGVPSRFSGSGSGTEFTLTISSLQPEDFATYYCQQLNSYPPPFGGGTKVEIK

Where a chain is given by its changes, count along the chain named.

In one test the target is SARS-CoV-2 spike protein receptor binding domain (RBD) (SARS-CoV-2, UniProt P0DTC2 319-539). As to the kind of experiment: ELISA, RBD coated on plate, mAb titrated. Background: In an ELISA, binding on a coated surface is turned into a signal by an enzyme label.
Molecule B1 registered an EC50 of 41.9 ng/mL.
Same read-out and setting: under B2 stands 1.28 ng/mL; under B3, 1.78 ng/mL; under B4, 1.07 ng/mL.
The same measure, in the same setting: the same measure for B5: 2.34 ng/mL.
Same read-out and setting: the same measure for B6: 1.61 ng/mL; for B7: 4.85 ng/mL.
In the case of B8, the EC50 turned out to be 1.3 ng/mL.
Still for that read-out and setting: the same measure for B9: 1.72 ng/mL; for B10: 3.95 ng/mL.
On the same count and under the same terms, the same measure for B11: 2.9 ng/mL; for B12: 1.53 ng/mL; for B13: 1.76 ng/mL.
B14 gave an EC50 of 3.68 ng/mL.
On the same count and under the same terms, the same measure for B15: 2.46 ng/mL; for B16: 1.88 ng/mL.
On the same count and under the same terms, under B17 stands 3.57 ng/mL.

The target in the next test is SARS-CoV-2 spike receptor binding domain (RBD), S protein residues 319-539 (SARS-CoV-2, UniProt P0DTC2 319-539). As to the kind of experiment: ELISA on coated RBD.
Molecule B18 registered an EC50 of 20.6 ng/mL.
Same read-out and setting: under B19 stands 1.31 ng/mL; under B20, 45.9 ng/mL; under B21, 3.56 ng/mL.
Still for that read-out and setting: under B22 stands 1.68 ng/mL; under B23, 1.73 ng/mL.
